Results reported in paper PMC7352350, “Molecular Interactions Stabilizing the Promatrix Metalloprotease-9·Serglycin Heteromer” (International Journal of Molecular Sciences, 2020).
Each block holds one binder with its values, some of them ahead of it.

Key:
Details in all cases: both partners purified
[1] = molecular target: T1, recombinant human His-tagged serglycin (human, UniProt P10124 28-158); assay: peptide or protein array; 20-mer walks of the MMP-9 FnII module and HPX domain on cellulose, two-residue shift; 10 uL of 1 ng/uL Ht-SG in 10 mL blocking buffer, 1-4 h, room temperature; antibodies against SG
T1 construct: serglycin core protein, human, the tag stands instead of the signal peptide; no GAG chains; numbers count on: the mature protein (1-131); also called Ht-SG; SG core protein; source: bought: ProSpec (produced in Escherichia coli)
T1 sequence (looked up): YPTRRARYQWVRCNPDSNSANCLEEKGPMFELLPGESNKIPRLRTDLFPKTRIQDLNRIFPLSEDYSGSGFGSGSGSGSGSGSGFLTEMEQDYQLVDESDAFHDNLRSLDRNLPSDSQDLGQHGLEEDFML

[2] = molecular target: T2, recombinant proMMP-9 lacking the HPX domain (human, UniProt P14780 20-515); assay: peptide or protein array; 20-mer walk of the SG core protein on cellulose, two-residue shift; 8.8 ul of 11.2 ug/mL proMMP-9 in 10 mL blocking buffer, 1-4 h, room temperature; antibody against MMP-9
T2 construct: MMP-9 proenzyme, human; stop codon behind the codon for A515; the mature proenzyme starts at 20; also called rpMMP-9ΔHPX; proMMP-9ΔHPX; source: Sf9, baculovirus, purified (gelatin-Sepharose)
T2 sequence (P14780 20-515): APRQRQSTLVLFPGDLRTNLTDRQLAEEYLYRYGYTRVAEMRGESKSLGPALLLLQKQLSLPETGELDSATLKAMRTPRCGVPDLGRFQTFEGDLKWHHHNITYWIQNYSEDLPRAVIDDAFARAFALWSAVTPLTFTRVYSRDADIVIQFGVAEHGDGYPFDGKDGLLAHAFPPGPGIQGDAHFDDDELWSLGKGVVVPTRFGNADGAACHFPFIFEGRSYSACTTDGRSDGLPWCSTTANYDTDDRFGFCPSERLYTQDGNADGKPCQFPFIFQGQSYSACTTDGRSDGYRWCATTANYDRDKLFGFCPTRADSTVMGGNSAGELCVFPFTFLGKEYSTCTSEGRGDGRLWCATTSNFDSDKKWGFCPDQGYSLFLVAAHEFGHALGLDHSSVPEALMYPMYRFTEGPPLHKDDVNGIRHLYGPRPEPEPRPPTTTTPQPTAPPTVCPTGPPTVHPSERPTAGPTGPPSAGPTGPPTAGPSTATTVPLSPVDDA

[3] = molecular target: T3, proMMP-9 purified from THP-1 cells (human (endogenous in THP-1), UniProt P14780 20-707); assay: as above
T3 construct: matrix metalloprotease-9 proenzyme, human; pre domain cleaved off, the mature proenzyme is 20-707; the preparation holds a small amount of TIMP-1; monomer and reduction-sensitive homomultimer; also called pMMP-9; promatrix metalloprotease-9; source: purified from conditioned medium of PMA-stimulated THP-1 cells (Q-Sepharose pass-through, gelatin-Sepharose)
T3 sequence (P14780 20-707): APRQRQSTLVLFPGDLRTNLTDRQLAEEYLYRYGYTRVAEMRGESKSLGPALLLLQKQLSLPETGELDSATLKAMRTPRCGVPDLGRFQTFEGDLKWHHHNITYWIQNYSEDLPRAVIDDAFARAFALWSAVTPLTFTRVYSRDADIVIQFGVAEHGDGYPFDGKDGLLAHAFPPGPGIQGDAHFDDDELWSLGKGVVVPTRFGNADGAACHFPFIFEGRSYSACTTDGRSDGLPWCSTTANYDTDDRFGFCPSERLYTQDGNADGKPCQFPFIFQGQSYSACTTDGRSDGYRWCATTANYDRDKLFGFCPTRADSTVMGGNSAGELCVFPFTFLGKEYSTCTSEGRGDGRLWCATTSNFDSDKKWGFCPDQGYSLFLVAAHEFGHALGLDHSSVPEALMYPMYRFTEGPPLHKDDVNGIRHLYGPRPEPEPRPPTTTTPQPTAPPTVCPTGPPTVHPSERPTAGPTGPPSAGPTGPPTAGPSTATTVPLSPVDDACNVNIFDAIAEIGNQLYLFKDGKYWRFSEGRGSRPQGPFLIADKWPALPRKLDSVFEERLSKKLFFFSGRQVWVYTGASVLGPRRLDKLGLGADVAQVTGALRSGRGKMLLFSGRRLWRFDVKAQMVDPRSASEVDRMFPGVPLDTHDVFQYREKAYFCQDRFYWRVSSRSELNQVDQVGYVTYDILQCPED

[4] = molecular target: T4, recombinant full-length proMMP-9 (human, UniProt P14780 20-707); assay: as above
T4 construct: matrix metalloprotease-9 proenzyme, human, full-length; pre domain cleaved off, the mature proenzyme is 20-707; also called rpMMP-9; source: Sf9, baculovirus, purified (gelatin-Sepharose)

[5] = molecular target: T3, proMMP-9 purified from THP-1 cells; assay: as above; remark: listed apart in the source
[6] = molecular target: T1, recombinant human His-tagged serglycin; assay: peptide or protein array; mutated FnII and HPX 20-mer peptides on cellulose, incubated with Ht-SG; antibodies against SG

B1: HPX peptide 18 (peptide, UniProt P14780 555-574, looked up)
peptide: LIADKWPALPRKLDSVFEER
notes: MMP-9 HPX domain (F521-D707), spot 18 of the 20-mer walk with two-residue shift; source: synthetic peptide on a cellulose membrane
binding result [1]: binds

B2: FnII peptide 17 (peptide, UniProt P14780 257-276, looked up)
peptide: STTANYDTDDRFGFCPSERL
notes: MMP-9 FnII module (A225-D390), spot 17 of the 20-mer walk with two-residue shift; source: synthetic peptide on a cellulose membrane
binding result [1]: binds

B3: HPX peptide 38 (peptide, UniProt P14780 595-614, looked up)
peptide: VLGPRRLDKLGLGADVAQVT
notes: MMP-9 HPX domain (F521-D707), spot 38 of the 20-mer walk with two-residue shift; source: synthetic peptide on a cellulose membrane
binding result [1]: binds

B4: SG peptide 23 (peptide, UniProt P10124 72-91, looked up)
peptide: TDLFPKTRIQDLNRIFPLSE
notes: serglycin core protein, spot 23 of the 20-mer walk with two-residue shift; numbers count on: the mature protein (1-131); source: synthetic peptide on a cellulose membrane
binding result [2]: binds
binding result [3]: binds
binding result [4]: binds

B5: SG peptide 21 (peptide, UniProt P10124 68-87, looked up)
peptide: PRLRTDLFPKTRIQDLNRIF
notes: serglycin core protein, spot 21 of the 20-mer walk with two-residue shift; numbers count on: the mature protein (1-131); source: synthetic peptide on a cellulose membrane
binding result [3]: binds
binding result [4]: binds

B6: HPX peptide 19 (peptide, UniProt P14780 557-576, looked up)
peptide: ADKWPALPRKLDSVFEERLS
notes: MMP-9 HPX domain (F521-D707), spot 19 of the 20-mer walk with two-residue shift; source: synthetic peptide on a cellulose membrane
binding result [1]: binds

B7: SG peptide 51 (peptide, UniProt P10124 128-147, looked up)
peptide: AFHDNLRSLDRNLPSDSQDL
notes: serglycin core protein, spot 51 of the 20-mer walk with two-residue shift; numbers count on: the mature protein (1-131); source: synthetic peptide on a cellulose membrane
binding result [5]: binds

B8: FnII peptide 64 (peptide, UniProt P14780 351-370, looked up)
peptide: FTFLGKEYSTCTSEGRGDGR
notes: MMP-9 FnII module (A225-D390), spot 64 of the 20-mer walk with two-residue shift; source: synthetic peptide on a cellulose membrane
binding result [1]: binds

B9: SG peptide 47 (peptide, UniProt P10124 120-139, looked up)
peptide: YQLVDESDAFHDNLRSLDRN
notes: serglycin core protein, spot 47 of the 20-mer walk with two-residue shift; numbers count on: the mature protein (1-131); source: synthetic peptide on a cellulose membrane
binding result [2]: binds
binding result [3]: binds
binding result [4]: binds

B10: HPX peptide 69 (peptide, UniProt P14780 657-676, looked up)
peptide: VPLDTHDVFQYREKAYFCQD
notes: MMP-9 HPX domain (F521-D707), spot 69 of the 20-mer walk with two-residue shift; source: synthetic peptide on a cellulose membrane
binding result [1]: binds

B11: HPX peptide 41 with D609 mutated (peptide, UniProt P14780 601-620, looked up)
peptide: LDKLGLGAAVAQVTGALRSG
notes: MMP-9 HPX domain, mutated 20-mer of spot 41; source: synthetic peptide on a cellulose membrane
binding result [6]: binds

B12: SG peptide 54 (peptide, UniProt P10124 134-153, looked up)
peptide: RSLDRNLPSDSQDLGQHGLE
notes: serglycin core protein, spot 54 of the 20-mer walk with two-residue shift; numbers count on: the mature protein (1-131); source: synthetic peptide on a cellulose membrane
binding result [5]: binds

B13: FnII peptide 14 (peptide, UniProt P14780 251-270, looked up)
peptide: DGLPWCSTTANYDTDDRFGF
notes: MMP-9 FnII module (A225-D390), spot 14 of the 20-mer walk with two-residue shift; source: synthetic peptide on a cellulose membrane
binding result [1]: binds

B14: SG peptide 25 (peptide, UniProt P10124 76-95, looked up)
peptide: PKTRIQDLNRIFPLSEDYSG
notes: serglycin core protein, spot 25 of the 20-mer walk with two-residue shift; numbers count on: the mature protein (1-131); source: synthetic peptide on a cellulose membrane
binding result [2]: binds
binding result [3]: binds
binding result [4]: binds

B15: HPX peptide 12 (peptide, UniProt P14780 543-562, looked up)
peptide: SEGRGSRPQGPFLIADKWPA
notes: MMP-9 HPX domain (F521-D707), spot 12 of the 20-mer walk with two-residue shift; source: synthetic peptide on a cellulose membrane
binding result [1]: binds

B16: SG peptide 6 (peptide, UniProt P10124 38-57, looked up)
peptide: VRCNPDSNSANCLEEKGPMF
notes: serglycin core protein, spot 6 of the 20-mer walk with two-residue shift; numbers count on: the mature protein (1-131); source: synthetic peptide on a cellulose membrane
binding result [2]: binds
binding result [3]: binds
binding result [4]: binds

Results, then the binder that gave them:

binding result [1]: binds
B17: HPX peptide 70 (peptide, UniProt P14780 659-678, looked up)
peptide: LDTHDVFQYREKAYFCQDRF
notes: MMP-9 HPX domain (F521-D707), spot 70 of the 20-mer walk with two-residue shift; source: synthetic peptide on a cellulose membrane

binding result [2]: binds
binding result [3]: binds
binding result [4]: binds
B18: SG peptide 48 (peptide, UniProt P10124 122-141, looked up)
peptide: LVDESDAFHDNLRSLDRNLP
notes: serglycin core protein, spot 48 of the 20-mer walk with two-residue shift; numbers count on: the mature protein (1-131); source: synthetic peptide on a cellulose membrane

binding result [1]: binds
B19: FnII peptide 16 (peptide, UniProt P14780 255-274, looked up)
peptide: WCSTTANYDTDDRFGFCPSE
notes: MMP-9 FnII module (A225-D390), spot 16 of the 20-mer walk with two-residue shift; source: synthetic peptide on a cellulose membrane

binding result [1]: binds
B20: HPX peptide 41 (peptide, UniProt P14780 601-620, looked up)
peptide: LDKLGLGADVAQVTGALRSG
notes: MMP-9 HPX domain (F521-D707), spot 41 of the 20-mer walk with two-residue shift; source: synthetic peptide on a cellulose membrane

binding result [1]: binds
B21: FnII peptide 19 (peptide, UniProt P14780 261-280, looked up)
peptide: NYDTDDRFGFCPSERLYTQD
notes: MMP-9 FnII module (A225-D390), spot 19 of the 20-mer walk with two-residue shift; source: synthetic peptide on a cellulose membrane

binding result [1]: binds
B22: FnII peptide 20 (peptide, UniProt P14780 263-282, looked up)
peptide: DTDDRFGFCPSERLYTQDGN
notes: MMP-9 FnII module (A225-D390), spot 20 of the 20-mer walk with two-residue shift; source: synthetic peptide on a cellulose membrane

binding result [1]: binds
B23: HPX peptide 56 (peptide, UniProt P14780 631-650, looked up)
peptide: RLWRFDVKAQMVDPRSASEV
notes: MMP-9 HPX domain (F521-D707), spot 56 of the 20-mer walk with two-residue shift; source: synthetic peptide on a cellulose membrane

binding result [1]: binds
B24: FnII peptide 13 (peptide, UniProt P14780 249-268, looked up)
peptide: RSDGLPWCSTTANYDTDDRF
notes: MMP-9 FnII module (A225-D390), spot 13 of the 20-mer walk with two-residue shift; source: synthetic peptide on a cellulose membrane
